From publication PMC11574045, “A cofactor-induced repressive type of transcription factor condensation can be induced by synthetic peptides to suppress tumorigenesis” (The EMBO Journal, 2024)

B1: MEIS3 (protein, UniProt Q99687 1-375, looked up)
Homeobox protein Meis3: MARRYDELPHYPGIVDGPAALASFPETVPAVPGPYGPHRPPQPLPPGLDSDGLKREKDEIYGHPLFPLLALVFEKCELATCSPRDGAGAGLGTPPGGDVCSSDSFNEDIAAFAKQVRSERPLFSSNPELDNLMIQAIQVLRFHLLELEKVHDLCDNFCHRYITCLKGKMPIDLVIEDRDGGCREDFEDYPASCPSLPDQNNMWIRDHEDSGSVHLGTPGPSSGGLASQSGDNSSDQGDGLDTSVASPSSGGEDEDLDQERRRNKKRGIFPKVATNIMRAWLFQHLSHPYPSEEQKKQLAQDTGLTILQVNNWFINARRRIVQPMIDQSNRTGQGAAFSPEGQPIGGYTETQPHVAVRPPGSVGMSLNLEGEWHYL
B2: ASCL4 (protein, UniProt Q6XD76 1-172, looked up)
Achaete-scute homolog 4: METRKPAERLALPYSLRTAPLGVPGTLPGLPRRDPLRVALRLDAACWEWARSGCARGWQYLPVPLDSAFEPAFLRKRNERERQRVRCVNEGYARLRDHLPRELADKRLSKVETLRAAIDYIKHLQELLERQAWGLEGAAGAVPQRRAECNSDGESKASSAPSPSSEPEEGGS
B3: MLR2 (protein, UniProt Q96JN0 1-433, looked up)
Ligand-dependent corepressor: MQRMIQQFAAEYTSKNSSTQDPSQPNSTKNQSLPKASPVTTSPTAATTQNPVLSKLLMADQDSPLDLTVRKSQSEPSEQDGVLDLSTKKSPCAGSTSLSHSPGCSSTQGNGRPGRPSQYRPDGLRSGDGVPPRSLQDGTREGFGHSTSLKVPLARSLQISEELLSRNQLSTAASLGPSGLQNHGQHLILSREASWAKPHYEFNLSRMKFRGNGALSNISDLPFLAENSAFPKMALQAKQDGKKDVSHSSPVDLKIPQVRGMDLSWESRTGDQYSYSSLVMGSQTESALSKKLRAILPKQSRKSMLDAGPDSWGSDAEQSTSGQPYPTSDQEGDPGSKQPRKKRGRYRQYNSEILEEAISVVMSGKMSVSKAQSIYGIPHSTLEYKVKERLGTLKNPPKKKMKLMRSEGPDVSVKIELDPQGEAAQSANESKNE
B4: MDM4 (protein, UniProt O15151 1-490, looked up)
Protein Mdm4: MTSFSTSAQCSTSDSACRISPGQINQVRPKLPLLKILHAAGAQGEMFTVKEVMHYLGQYIMVKQLYDQQEQHMVYCGGDLLGELLGRQSFSVKDPSPLYDMLRKNLVTLATATTDAAQTLALAQDHSMDIPSQDQLKQSAEESSTSRKRTTEDDIPTLPTSEHKCIHSREDEDLIENLAQDETSRLDLGFEEWDVAGLPWWFLGNLRSNYTPRSNGSTDLQTNQDVGTAIVSDTTDDLWFLNESVSEQLGVGIKVEAADTEQTSEEVGKVSDKKVIEVGKNDDLEDSKSLSDDTDVEVTSEDEWQCTECKKFNSPSKRYCFRCWALRKDWYSDCSKLTHSLSTSDITAIPEKENEGNDVPDCRRTISAPVVRPKDAYIKKENSKLFDPCNSVEFLDLAHSSESQETISSMGEQLDNLSEQRTDTENMEDCQNLLKPCSLCEKRPRDGNIIHGRTGHLVTCFHCARRLKKAGASCPICKKEIQLVIKVFIA
B5: MUSCLIN (protein, UniProt P61366 28-133, looked up)
Osteocrin: VDVTTTEAFDSGVIDVQSTPTVREEKSATDLTAKLLLLDELVSLENDVIETKKKRSFSGFGSPLDRLSAGSVDHKGKQRKVVDHPKRRFGIPMDRIGRNRLSNSRG
B6: MESP1 (protein, UniProt Q9BRJ9 1-268, looked up)
Mesoderm posterior protein 1: MAQPLCPPLSESWMLSAAWGPTRRPPPSDKDCGRSLVSSPDSWGSTPADSPVASPARPGTLRDPRAPSVGRRGARSSRLGSGQRQSASEREKLRMRTLARALHELRRFLPPSVAPAGQSLTKIETLRLAIRYIGHLSAVLGLSEESLQRRCRQRGDAGSPRGCPLCPDDCPAQMQTRTQAEGQGQGRGLGLVSAVRAGASWGSPPACPGARAAPEPRDPPALFAEAACPEGQAMEPSPPSPLLPGDVLALLETWMPLSPLEWLPEEPK
B7: MTDH (protein, UniProt Q86UE4 1-582, looked up)
Protein LYRIC: MAARSWQDELAQQAEEGSARLREMLSVGLGFLRTELGLDLGLEPKRYPGWVILVGTGALGLLLLFLLGYGWAAACAGARKKRRSPPRKREEAAAVPAAAPDDLALLKNLRSEEQKKKNRKKLSEKPKPNGRTVEVAEGEAVRTPQSVTAKQPPEIDKKNEKSKKNKKKSKSDAKAVQNSSRHDGKEVDEGAWETKISHREKRQQRKRDKVLTDSGSLDSTIPGIENTITVTTEQLTTASFPVGSKKNKGDSHLNVQVSNFKSGKGDSTLQVSSGLNENLTVNGGGWNEKSVKLSSQISAGEEKWNSVSPASAGKRKTEPSAWSQDTGDANTNGKDWGRSWSDRSIFSGIGSTAEPVSQSTTSDYQWDVSRNQPYIDDEWSGLNGLSSADPNSDWNAPAEEWGNWVDEERASLLKSQEPIPDDQKVSDDDKEKGEGALPTGKSKKKKKKKKKQGEDNSTAQDTEELEKEIREDLPVNTSKTRPKQEKAFSLKTISTSDPAEVLVKNSQPIKTLPPATSTEPSVILSKSDSDKSSSQVPPILQETDKSKSNTKQNSVPPSQTKSETSWESPKQIKKKKKARRET
B8: MEF2A (protein, UniProt Q02078 1-507, looked up)
Myocyte-specific enhancer …: MGRKKIQITRIMDERNRQVTFTKRKFGLMKKAYELSVLCDCEIALIIFNSSNKLFQYASTDMDKVLLKYTEYNEPHESRTNSDIVEALNKKEHRGCDSPDPDTSYVLTPHTEEKYKKINEEFDNMMRNHKIAPGLPPQNFSMSVTVPVTSPNALSYTNPGSSLVSPSLAASSTLTDSSMLSPPQTTLHRNVSPGAPQRPPSTGNAGGMLSTTDLTVPNGAGSSPVGNGFVNSRASPNLIGATGANSLGKVMPTKSPPPPGGGNLGMNSRKPDLRVVIPPSSKGMMPPLSEEEELELNTQRISSSQATQPLATPVVSVTTPSLPPQGLVYSAMPTAYNTDYSLTSADLSALQGFNSPGMLSLGQVSAWQQHHLGQAALSSLVAGGQLSQGSNLSINTNQNISIKSEPISPPRDRMTPSGFQQQQQQQQQQQPPPPPQPQPQPPQPQPRQEMGRSPVDSLSSSSSSYDGSDREDPRGDFHSPIVLGRPPNTEDRESPSVKRMRMDAWVT
B9: MSGN1 (protein, UniProt A6NI15 1-193, looked up)
Mesogenin-1: MDNLRETFLSLEDGLGSSDSPGLLSSWDWKDRAGPFELNQASPSQSLSPAPSLESYSSSPCPAVAGLPCEHGGASSGGSEGCSVGGASGLVEVDYNMLAFQPTHLQGGGGPKAQKGTKVRMSVQRRRKASEREKLRMRTLADALHTLRNYLPPVYSQRGQPLTKIQTLKYTIKYIGELTDLLNRGREPRAQSA
B10: MLLT10 (protein, UniProt P55197 1-1068, looked up)
Protein AF-10: MVSSDRPVSLEDEVSHSMKEMIGGCCVCSDERGWAENPLVYCDGHGCSVAVHQACYGIVQVPTGPWFCRKCESQERAARVRCELCPHKDGALKRTDNGGWAHVVCALYIPEVQFANVSTMEPIVLQSVPHDRYNKTCYICDEQGRESKAATGACMTCNKHGCRQAFHVTCAQFAGLLCEEEGNGADNVQYCGYCKYHFSKLKKSKRGSNRSYDQSLSDSSSHSQDKHHEKEKKKYKEKDKHKQKHKKQPEPSPALVPSLTVTTEKTYTSTSNNSISGSLKRLEDTTARFTNANFQEVSAHTSSGKDVSETRGSEGKGKKSSAHSSGQRGRKPGGGRNPGTTVSAASPFPQGSFSGTPGSVKSSSGSSVQSPQDFLSFTDSDLRNDSYSHSQQSSATKDVHKGESGSQEGGVNSFSTLIGLPSTSAVTSQPKSFENSPGDLGNSSLPTAGYKRAQTSGIEEETVKEKKRKGNKQSKHGPGRPKGNKNQENVSHLSVSSASPTSSVASAAGSITSSSLQKSPTLLRNGSLQSLSVGSSPVGSEISMQYRHDGACPTTTFSELLNAIHNGIYNSNDVAVSFPNVVSGSGSSTPVSSSHLPQQSSGHLQQVGALSPSAVSSAAPAVATTQANTLSGSSLSQAPSHMYGNRSNSSMAALIAQSENNQTDQDLGDNSRNLVGRGSSPRGSLSPRSPVSSLQIRYDQPGNSSLENLPPVAASIEQLLERQWSEGQQFLLEQGTPSDILGMLKSLHQLQVENRRLEEQIKNLTAKKERLQLLNAQLSVPFPTITANPSPSHQIHTFSAQTAPTTDSLNSSKSPHIGNSFLPDNSLPVLNQDLTSSGQSTSSSSALSTPPPAGQSPAQQGSGVSGVQQVNGVTVGALASGMQPVTSTIPAVSAVGGIIGALPGNQLAINGIVGALNGVMQTPVTMSQNPTPLTHTTVPPNATHPMPATLTNSASGLGLLSDQQRQILIHQQQFQQLLNSQQLTPEQHQAFLYQLMQHHHQQHHQPELQQLQIPGPTQIPINNLLAGTQAPPLHTATTNPFLTIHGDNASQKVARLSDKTGPVAQEKS
B11: MNAT1 (protein, UniProt P51948 1-309, looked up)
CDK-activating kinase …: MDDQGCPRCKTTKYRNPSLKLMVNVCGHTLCESCVDLLFVRGAGNCPECGTPLRKSNFRVQLFEDPTVDKEVEIRKKVLKIYNKREEDFPSLREYNDFLEEVEEIVFNLTNNVDLDNTKKKMEIYQKENKDVIQKNKLKLTREQEELEEALEVERQENEQRRLFIQKEEQLQQILKRKNKQAFLDELESSDLPVALLLAQHKDRSTQLEMQLEKPKPVKPVTFSTGIKMGQHISLAPIHKLEEALYEYQPLQIETYGPHVPELEMLGRLGYLNHVRAASPQDLAGGYTSSLACHRALQDAFSGLFWQPS
B12: MLXIP (protein, UniProt Q9HAP2 2-919, looked up)
MLX-interacting protein: AADVFMCSPRRPRSRGRQVLLKPQVSEDDDDSDTDEPSPPPASGAATPARAHASAAPPPPRAGPGREEPPRRQQIIHSGHFMVSSPHREHPPKKGYDFDTVNKQTCQTYSFGKTSSCHLSIDASLTKLFECMTLAYSGKLVSPKWKNFKGLKLQWRDKIRLNNAIWRAWYMQYLEKRKNPVCHFVTPLDGSVDVDEHRRPEAITTEGKYWKSRIEIVIREYHKWRTYFKKRLQQHKDEDLSSLVQDDDMLYWHKHGDGWKTPVPMEEDPLLDTDMLMSEFSDTLFSTLSSHQPVAWPNPREIAHLGNADMIQPGLIPLQPNLDFMDTFEPFQDLFSSSRSIFGSMLPASASAPVPDPNNPPAQESILPTTALPTVSLPDSLIAPPTAPSLAHMDEQGCEHTSRTEDPFIQPTDFGPSEPPLSVPQPFLPVFTMPLLSPSPAPPPISPVLPLVPPPATALNPPAPPTFHQPQKFAGVNKAPSVITHTASATLTHDAPATTFSQSQGLVITTHHPAPSAAPCGLALSPVTRPPQPRLTFVHPKPVSLTGGRPKQPHKIVPAPKPEPVSLVLKNARIAPAAFSGQPQAVIMTSGPLKREGMLASTVSQSNVVIAPAAIARAPGVPEFHSSILVTDLGHGTSSPPAPVSRLFPSTAQDPLGKGEQVPLHGGSPQVTVTGPSRDCPNSGQASPCASEQSPSPQSPQNNCSGKSDPKNVAALKNRQMKHISAEQKRRFNIKMCFDMLNSLISNNSKLTSHAITLQKTVEYITKLQQERGQMQEEARRLREEIEELNATIISCQQLLPATGVPVTRRQFDHMKDMFDEYVKTRTLQNWKFWIFSIIIKPLFESFKGMVSTSSLEELHRTALSWLDQHCSLPILRPMVLSTLRQLSTSTSILTDPAQLPEQASKAVTRIGKRLGES

Test system: HEK293FT cells transfected with TF library
Test: Screening of TF condensates based on fluorescent puncta
Type: cell-based
Details: Figure 1B numerical data; TF library screen, one value per transcriptional factor
How it was run: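 Cells were seeded onto plasmid/PEI-loaded wells (plasmid 1.6 μg/ml final) and grown 60 h. Medium with or without glucose followed for 12 h. Fixed, permeabilized cells were stained against Flag or GAL4 tags, and condensate puncta were quantified from 50 random fields per well.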

Molecule	Z score of condensed fraction
B1	1.7837
B2	1.17
B3	0.991
B4	2.3
B5	0.265
B6	-1.02
B7	1.2714
B8	-0.6589
B9	0.1411
B10	0.7939
B11	-0.8808
B12	-0.5131
